Laboratory results published in US20220177596A1 (Bristol-Myers Squibb, published 2022).
Substitutions are numbered along the chain they refer to. Where “and” joins values, the source holds several entries; their conditions need not be identical. Identical values can stand only once.

Legend:
[1] = target: human CD40 on primary human cells (tonsillar B cells, immature dendritic cells) (human, UniProt P25942 21-277); experiment: cell-based or functional assay
[2] = target: T1, human-CD40 monomer (human, UniProt P25942 21-193, limits assumed); experiment: SPR, Ab captured on protein A, CD40 monomer analyte
T1 construct: also called hCD40-monomer; human-CD40-monomer protein
T1 sequence (P25942 21-193 limits assumed): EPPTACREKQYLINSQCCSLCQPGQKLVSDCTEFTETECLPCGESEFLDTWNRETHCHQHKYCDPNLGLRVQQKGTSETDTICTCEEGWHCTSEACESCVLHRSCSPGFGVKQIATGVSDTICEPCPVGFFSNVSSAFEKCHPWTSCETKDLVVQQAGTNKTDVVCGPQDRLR
Excerpt: Based on the supernatant screening SPR data and bias towards constructs with fewer framework back-mutations, a subset of humanized Y1238 antibodies were selected for expression, purification, and further characterization. Two of these antibodies (i.e., Y1238-hz1 and Y1238-hz2) were formatted with P238K and N297A isotypes (i.e., SEQ ID NOS: 39, 40, 42, and 43 for heavy chains; see TABLE 15 for light chains) and tested for CD40 and FcgR binding by SPR. […] The Fc domain is underlined.

[3] = target: T1, human-CD40 monomer; experiment: SPR full kinetics, Ab on protein A
Procedure: The VH sequences were formatted in the context of an IgG1.3f isotype. The Vκ sequences were formatted as a full light chain with a common CL sequence. All 55 combinations of these humanized HC and LC constructs, as well as the chimeric Y1238 molecule were expressed as 3 ml supernatants for binding analysis by SPR. […] All antibodies, except for those containing hz-HC3, captured at high levels (>300 RU) using a 100-fold dilution of the expression supernatant, indicating a high antibody titer in the supernatant except for the hz-HC3 samples. The kinetic data for the two concentrations of hCD40-monomer were fit to a 1:1 Langmuir model, to yield estimates of the kinetic and affinity values for these interactions, and for comparison of the different molecules. […] Also, for a given heavy chain, the antibodies with light chains hz-LC1 or hz-LC2 had higher CD40 affinity than those with hz-LC3, hz-LC4 or hz-LC5.

[4] = target: T1, human-CD40 monomer; experiment: SPR 2 pt screen, Ab on protein A
Procedure: The VH sequences were formatted in the context of an IgG1.3f isotype. The Vκ sequences were formatted as a full light chain with a common CL sequence. All 55 combinations of these humanized HC and LC constructs, as well as the chimeric Y1238 molecule were expressed as 3 ml supernatants for binding analysis by SPR. Each of the 56 supernatants, as well as a purified Y1238-chimeric IgG1 antibody, was captured on a protein A sensor chip and tested for binding to two concentrations (i.e., 200 nM and 1000 nM) of hCD40-monomer using BIAcore™ SPR in a screening assay. All antibodies, except for those containing hz-HC3, captured at high levels (>300 RU) using a 100-fold dilution of the expression supernatant, indicating a high antibody titer in the supernatant except for the hz-HC3 samples. The kinetic data for the two concentrations of hCD40-monomer were fit to a 1:1 Langmuir model, to yield estimates of the kinetic and affinity values for these interactions, and for comparison of the different molecules. […] Also, for a given heavy chain, the antibodies with light chains hz-LC1 or hz-LC2 had higher CD40 affinity than those with hz-LC3, hz-LC4 or hz-LC5.

[5] = target: T1, human-CD40 monomer; experiment: SPR, Ab captured on protein A, CD40 monomer analyte; remark: listed apart in the source
[6] = target: T1, human-CD40 monomer; experiment: as above; remark: listed apart in the source
Procedure: These chimeric antibodies were tested for CD40 and FcgR binding by SPR, as well as for iDC activation.

Chain of human CD40 on primary human cells (tonsillar B cells, immature dendritic cells) (P25942 21-277 limits assumed): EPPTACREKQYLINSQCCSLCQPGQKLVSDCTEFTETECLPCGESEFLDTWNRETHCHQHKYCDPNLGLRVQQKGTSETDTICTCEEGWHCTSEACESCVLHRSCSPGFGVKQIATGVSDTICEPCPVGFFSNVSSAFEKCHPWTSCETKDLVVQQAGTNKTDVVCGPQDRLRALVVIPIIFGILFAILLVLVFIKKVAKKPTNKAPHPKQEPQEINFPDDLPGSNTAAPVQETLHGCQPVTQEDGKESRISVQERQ

B1: Y1238-hz2-N297A (antibody, human IgG1, kappa, N297A)
heavy: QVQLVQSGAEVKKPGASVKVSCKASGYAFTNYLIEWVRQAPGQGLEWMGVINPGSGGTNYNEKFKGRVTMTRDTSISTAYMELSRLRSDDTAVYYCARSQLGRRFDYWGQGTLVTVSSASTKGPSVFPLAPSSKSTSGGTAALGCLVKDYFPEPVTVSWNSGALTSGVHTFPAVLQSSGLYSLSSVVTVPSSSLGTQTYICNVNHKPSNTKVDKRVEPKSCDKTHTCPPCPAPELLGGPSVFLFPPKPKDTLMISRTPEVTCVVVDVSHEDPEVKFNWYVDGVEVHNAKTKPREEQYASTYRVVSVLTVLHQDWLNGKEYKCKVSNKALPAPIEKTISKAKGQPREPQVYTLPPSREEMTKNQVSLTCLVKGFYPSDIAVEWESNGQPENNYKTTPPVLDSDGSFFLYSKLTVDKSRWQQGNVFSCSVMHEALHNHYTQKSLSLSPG
light: DIQMTQSPSSLSASVGDRVTITCKASQDVRTGVAWYQQKPGKAPKLLIYSASYRNTGVPSRFSGSRSGTDFTFTISSLQPEDIATYYCQQHYSPPYTFGGGTKVEIKRTVAAPSVFIFPPSDEQLKSGTASVVCLLNNFYPREAKVQWKVDNALQSGNSQESVTEQDSKDSTYSLSSTLTLSKADYEKHKVYACEVTHQGLSSPVTKSFNRGEC
notes: Humanized Y1238
- IC50 for inhibition of proliferation of B cells, CD40L Trimer [1]: 2.9 ng/mL
- IC50 for inhibition of proliferation of B cells, CHO CD40L [1]: 20 ng/mL
- Kd [2]: 6 nM
- koff [2]: 0.0004 s⁻¹
- kon [2]: 66000 M⁻¹ s⁻¹

B2: Y1238-hz2-P238K (antibody, human IgG1, kappa)
heavy: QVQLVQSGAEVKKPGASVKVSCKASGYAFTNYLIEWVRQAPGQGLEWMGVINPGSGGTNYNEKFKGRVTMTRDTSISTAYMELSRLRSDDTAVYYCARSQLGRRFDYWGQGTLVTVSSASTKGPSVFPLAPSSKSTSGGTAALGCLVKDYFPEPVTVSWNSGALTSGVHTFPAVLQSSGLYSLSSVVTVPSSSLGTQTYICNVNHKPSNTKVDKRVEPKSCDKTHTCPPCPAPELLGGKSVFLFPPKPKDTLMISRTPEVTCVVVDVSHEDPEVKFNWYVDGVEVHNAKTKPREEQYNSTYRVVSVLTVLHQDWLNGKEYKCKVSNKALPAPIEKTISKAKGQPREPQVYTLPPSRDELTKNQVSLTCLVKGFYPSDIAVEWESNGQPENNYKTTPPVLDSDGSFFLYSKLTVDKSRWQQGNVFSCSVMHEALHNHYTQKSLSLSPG
light: B1 light
notes: Humanized Y1238
- IC50 for inhibition of proliferation of B cells, CD40L Trimer [1]: 2.7 ng/mL
- IC50 for inhibition of proliferation of B cells, CHO CD40L [1]: 21 ng/mL
- Kd [2]: 6.2 nM
- koff [2]: 0.00043 s⁻¹
- kon [2]: 70000 M⁻¹ s⁻¹

B3: Y1238 (antibody, V domains shown)
VH: QVQLQQSGAELVRPGTSVKVSCKASGYAFTNYLIEWVKQRPGQGLEWIGVINPGSGGTNYNEKFKGKATLTADKSSSTAYMQLSSLTSDDSAVYFCARSQLGRRFDYWGQGTTLTVSS
VL: DIVMTQSHKFMSTSVGDRVSITCKASQDVRTGVAWYQQKPGQSPKLLIYSASYRNTGVPDRFTGSRSGTDFTFTISSVQAEDLAVYYCQQHYSPPYTFGGGTKLEIK
- IC50 for inhibition of proliferation of B cells, CD40L Trimer [1]: 3.4 ng/mL
- IC50 for inhibition of proliferation of B cells, CHO CD40L [1]: 19.9 ng/mL

B4: chimeric Y1238 supernatant (Sup 56; HC-Chim / LC-Chim) (antibody)
VH: B3 VH
light: DIVMTQSHKFMSTSVGDRVSITCKASQDVRTGVAWYQQKPGQSPKLLIYSASYRNTGVPDRFTGSRSGTDFTFTISSVQAEDLAVYYCQQHYSPPYTFGGGTKLEIKRTVAAPSVFIFPPSDEQLKSGTASVVCLLNNFYPREAKVQWKVDNALQSGNSQESVTEQDSKDSTYSLSSTLTLSKADYEKHKVYACEVTHQGLSSPVTKSFNRGEC
notes: Tested as expression supernatant
- Kd [3]: 2.6 nM
- koff [3]: 0.00022 s⁻¹
- kon [3]: 86000 M⁻¹ s⁻¹
- Kd [4]: 5.6 nM
- koff [4]: 0.00032 s⁻¹
- kon [4]: 57000 M⁻¹ s⁻¹

B5: purified Y1238-chimeric IgG1 antibody (antibody)
VH: B3 VH
light: B4 light
notes: Called IgG1; also called Y1238-IgG1; chimeric, purified
- Kd [3]: 3.2 nM
- koff [3]: 0.00027 s⁻¹
- kon [3]: 83000 M⁻¹ s⁻¹
- Kd [4]: 6.7 nM and 6.9 nM and 8.6 nM
- koff [4]: 0.00038 s⁻¹ and 0.0004 s⁻¹ and 0.0005 s⁻¹
- kon [4]: 56000 M⁻¹ s⁻¹ and 59000 M⁻¹ s⁻¹ and 58000 M⁻¹ s⁻¹

B6: BI-mAb-B (antibody, human IgG1, kappa, L234A L235A, V domains shown)
VH: EVQLVESGGGLVKPGGSLRLSCAASGFTFSDYGMHWVRQAPGKGLEWVAYISSGNRIIYYADTVKGRFTISRDNAKNSLYLQMNSLRAEDTAVYYCARQDGYRYAMDYWGQGTLVTVSS
VL: DIVMTQSPDSLAVSLGEKVTINCKSSQSLLNSGNQKNYLTWHQQKPGQPPKLLIYWTSTRESGVPDRFSGSGSGTDFTLTISSLQAEDVAVYYCQNDYTYPLTFGGGTKVEIKR
notes: Comparator anti-CD40 antibody; also called Antibody B (U.S. Pat. No. 9,090,696)
- IC50 for inhibition of proliferation of B cells, CD40L Trimer [1]: 7.4 ng/mL
- Kd [2]: 35 nM
- koff [2]: 0.0021 s⁻¹
- kon [2]: 61000 M⁻¹ s⁻¹

B7: humanized Y1238 hz1 (hz-HC1 / hz-LC1), IgG1.3f (antibody, V domains shown)
VH: QVQLVQSGAEVKKPGASVKVSCKASGYAFTNYLIEWVRQAPGQGLEWMGVINPGSGGTNYNEKFKGRVTMTRDTSISTAYMELSRLRSDDTAVYYCARSQLGRRFDYWGQGTLVTVSS
VL: DIQMTQSPSSLSASVGDRVTITCKASQDVRTGVAWYQQKPGKAPKLLIYSASYRNTGVPSRFSGSGSGTDFTFTISSLQPEDIATYYCQQHYSPPYTFGGGTKVEIK
notes: IgG1.3f heavy constant, common CL; expression supernatant; also called Sup 1
- Kd [3]: 3 nM
- koff [3]: 0.00019 s⁻¹
- kon [3]: 65000 M⁻¹ s⁻¹
- Kd [4]: 4.2 nM
- koff [4]: 0.0002 s⁻¹
- kon [4]: 48000 M⁻¹ s⁻¹

B8: humanized Y1238 hz51 (hz-HC11 / hz-LC1), IgG1.3f (antibody, V domains shown)
VH: B7 VH with A40R, T74K, I76S, Y95F
VL: B7 VL
notes: IgG1.3f heavy constant, common CL; expression supernatant; also called Sup 51
- Kd [4]: 6.7 nM
- koff [4]: 0.00025 s⁻¹
- kon [4]: 37000 M⁻¹ s⁻¹

B9: humanized Y1238 hz54 (hz-HC11 / hz-LC4), IgG1.3f (antibody, V domains shown)
VH: B7 VH with A40R, T74K, I76S, Y95F
VL: B7 VL with K42Q, A43S, G66R, P80A, T85V
notes: IgG1.3f heavy constant, common CL; expression supernatant; also called Sup 54
- Kd [4]: 15 nM
- koff [4]: 0.00056 s⁻¹
- kon [4]: 38000 M⁻¹ s⁻¹

B10: humanized Y1238 hz52 (hz-HC11 / hz-LC2), IgG1.3f (antibody, V domains shown)
VH: B7 VH with A40R, T74K, I76S, Y95F
VL: B7 VL with G66R
notes: IgG1.3f heavy constant, common CL; expression supernatant; also called Sup 52
- Kd [4]: 6.5 nM
- koff [4]: 0.00023 s⁻¹
- kon [4]: 35000 M⁻¹ s⁻¹

B11: humanized Y1238 hz53 (hz-HC11 / hz-LC3), IgG1.3f (antibody, V domains shown)
VH: B7 VH with A40R, T74K, I76S, Y95F
VL: B7 VL with K42Q, A43S, G66R, T85V
notes: IgG1.3f heavy constant, common CL; expression supernatant; also called Sup 53
- Kd [4]: 18 nM
- koff [4]: 0.00067 s⁻¹
- kon [4]: 37000 M⁻¹ s⁻¹

B12: humanized Y1238 hz55 (hz-HC11 / hz-LC5), IgG1.3f (antibody, V domains shown)
VH: B7 VH with A40R, T74K, I76S, Y95F
VL: B7 VL with K42Q, G66R, T85V
notes: IgG1.3f heavy constant, common CL; expression supernatant; also called Sup 55
- Kd [4]: 15 nM
- koff [4]: 0.00056 s⁻¹
- kon [4]: 37000 M⁻¹ s⁻¹

B13: 5F11-45-IgG1.3f (antibody)
heavy: QVQLVQSGAEVKKPGSSVKVSCKASGYTFTDLSMHWVRQAPGQGLEWMGYITPSSGYTAYNQKFKGKTTLTADKSTSTAYMELSSLRSEDTAVYYCARLILQRGAYWGQGTLVTVSSASTKGPSVFPLAPSSKSTSGGTAALGCLVKDYFPEPVTVSWNSGALTSGVHTFPAVLQSSGLYSLSSVVTVPSSSLGTQTYICNVNHKPSNTKVDKRVEPKSCDKTHTCPPCPAPEAEGAPSVFLFPPKPKDTLMISRTPEVTCVVVDVSHEDPEVKFNWYVDGVEVHNAKTKPREEQYNSTYRVVSVLTVLHQDWLNGKEYKCKVSNKALPAPIEKTISKAKGQPREPQVYTLPPSREEMTKNQVSLTCLVKGFYPSDIAVEWESNGQPENNYKTTPPVLDSDGSFFLYSKLTVDKSRWQQGNVFSCSVMHEALHNHYTQKSLSLSPGK
light: DIVLTQSPDSLAVSLGERATINCRASKNVDSYGNSFMHWYQQKPGQPPKLLIYRASNLESGVPDRFSGSGSGTDFTLTISSLQAEDVAVYYCQQSNEDPLTFGQGTKLEIKRTVAAPSVFIFPPSDEQLKSGTASVVCLLNNFYPREAKVQWKVDNALQSGNSQESVTEQDSKDSTYSLSSTLTLSKADYEKHKVYACEVTHQGLSSPVTKSFNRGEC
- Kd [5]: 1.6 nM
- koff [5]: 0.00013 s⁻¹
- kon [5]: 82000 M⁻¹ s⁻¹

B14: Y1238-IgG1.3f (antibody)
heavy: QVQLQQSGAELVRPGTSVKVSCKASGYAFTNYLIEWVKQRPGQGLEWIGVINPGSGGTNYNEKFKGKATLTADKSSSTAYMQLSSLTSDDSAVYFCARSQLGRRFDYWGQGTTLTVSSASTKGPSVFPLAPSSKSTSGGTAALGCLVKDYFPEPVTVSWNSGALTSGVHTFPAVLQSSGLYSLSSVVTVPSSSLGTQTYICNVNHKPSNTKVDKRVEPKSCDKTHTCPPCPAPEAEGAPSVFLFPPKPKDTLMISRTPEVTCVVVDVSHEDPEVKFNWYVDGVEVHNAKTKPREEQYNSTYRVVSVLTVLHQDWLNGKEYKCKVSNKALPAPIEKTISKAKGQPREPQVYTLPPSREEMTKNQVSLTCLVKGFYPSDIAVEWESNGQPENNYKTTPPVLDSDGSFFLYSKLTVDKSRWQQGNVFSCSVMHEALHNHYTQKSLSLSPGK
light: B4 light
notes: Chimeric mouse/human anti-human CD40; also called Y1238-hIgG1.3f; chimeric Y1238 IgG1.3f
- Kd [6]: 2.1 nM
- koff [6]: 0.00021 s⁻¹
- kon [6]: 100000 M⁻¹ s⁻¹
